Assay results from patent US20240417446A1.

Tests used:
[1] = biological target: SARS-CoV-2 Delta variant spike protein on pseudovirus (SARS-CoV-2), P0DTC2; assay: cell-based or functional assay
[2] = biological target: SARS-CoV-2 Beta variant spike protein on pseudovirus (SARS-CoV-2), P0DTC2; assay: cell-based or functional assay

B1: NCI-CoV-S2A9 (VNAR)
chain: ARVDQTPRSVTKETGESLTINCVLRDASYALGRTCWYRKKSGSTNEESISKGGRYVETVNSGSKSFSLRINDLTVEDGGTYRCGVSTPWSCDYGPLCFYAACGDGTVVTVN
IC50 for neutralizing pseudovirus [1]: 1880 nM | IC50 for neutralizing pseudovirus [2]: 2220 nM
